# Data: the nanobody polyreactivity screen of Harvey et al. (2022)
# Assay: yeast display, Sf9 membrane polyspecificity reagent, FACS + sequencing; frameworks hold sequencing errors
# Summary of the method: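 In a synthetic yeast display library (Saccharomyces cerevisiae BJ5465), nanobody expression was induced with galactose for 36–48 hours. FACS gates were set low and high (top ~1%) using anti-HA fluorescence for expression and streptavidin fluorescence for binding of the Sf9 membrane reagent. Each polyreactivity label is drawn from the gate of origin.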
row,Sequence,polyreactivity (PSR sort gate)
1,QGQLVESGGGLVQAGGSLRLSCAASGFTFWYYAKGWSRQAPRKEREMVAVINTSGASTYADSVKGRFTISRDNAKITVDLQMNSLKPEDTAVYYCAAEGIATYPYDYWGHGTQVTVSS,low polyreactivity
2,QGQLVESGGGLVQAGGSLRLSCAASGISFSFYAMGWYRQAPGKERELVADITLSGGRTYYADSVKGRFTISRDNAKNTVYLQMNSLKPEDTAVYYCNADTYERVDYWGQGTQVTVSS,high polyreactivity
3,QGQLVESGGGLVQAGGSLRLSCAASGITFYYYAMGWYRQAPGKERELVAAINWSGTSTYYADSVKGRFTISRDNAKNTVYLQMNSLKPEDTAVYYCNAERGRSFWWAYDYWGQGTQVTVSS,low polyreactivity
4,QGQLVESGGGLVQAGGSLRLSCAASGLIFYKYAMGWYRQAPGKERELVAVISWSGGSTYYADSVKGRFTISRDNAKNTVYLQMNRLKPEDTAVYYCAADTSYYRIRGWFGRVDYGYWGQGTQVTVSS,high polyreactivity
5,QGQLVESGGGLVQAGGSLRLSCAASGRIFEFNARGWYRQAPGKERELVAANSRSGGSTYYADSVKGRFTISRDKAKNTVYLQMNTQKPEHTAVYYCNAVYHYYPLYYWKYGYWGQGTQVTVSS,low polyreactivity
6,QGQLVESGGGLVQAGGSLRLSCAASGRIFGHYAMGWYRQAPGKERELVAAISQSGTNTYYADSVKGRFTISRDNAKNTVYLQMNSLKPEDTAVYYCAAKPPRRYQLMDYWGQGTQVTVSS,high polyreactivity
7,QGQLVESGGGLVQAGGSLRLSCAASGRIFYAYAMGWYRQAPGKERELGAAITSSGGRTYYADSVKGRFTISRDTAKNTVYLQLNSLKPEDTAVYYCAAYDYWGQGTQVTVSS,low polyreactivity
8,QGQLVESGGGLVQAGGSLRLSCAASGRIFYGNVMGWYRQAPGKERELVADISYDGGSTYYADSVKGRFTISRDNAKNTVYLQMNSLKPEDTAVYYCNKREVFIYGTTYDYWGQGTQVTVSS,low polyreactivity
9,QGQLVESGGGLVQAGGSLRLSCAASGRNFRINDMGWYRQAPGKERELVAAITWSGGSTYYADSVKGRCPISRDNAKNTVYLQMHSLKPEDTAVYYCAADQAYFWGYYYWGQGTQVTVSS,low polyreactivity
10,QGQLVESGGGLVQAGGSLRLSCAASGRTFKYNVMGWYRQAPGKERELVAAISSGGGTNYADSVKGRFTISRDNAKNTVDLQMNSLKPEDTAVYYCAAKYAWRLLEMYYWGQGTQVTVSS,low polyreactivity
11,QGQLVESGGGLVQAGGSLRLSCAASGRTFYRYAMGWYRQAPGKERELVAAITRRGDSTSYADSVKGRFTISRDNAKNTVYLQMNSLKPEDTAVYYCATLVQGSVYGLYGGGYWGQGTQVTVSS,low polyreactivity
12,QGQLVESGGGLVQAGGSLRLSCAASGRTFYRYAMGWYRQAPGQERELVASITRGTSTNYADSVKGRFTISRDNAKNTVYLQMNSLKPEDTAVYYCAAGASGLFWDYDYWGQGTQVTVSS,high polyreactivity
13,QGQLVESGGGLVQAGGSLRLSCAASGRTVGEYTMGWSRPAPGKERELVAAISSAGRTNYADSVKGRFTISRDNAKNTVYLQMHRLKPEDTAVYYCAADWTDDVPGYDYWGQGTKVTVSS,low polyreactivity
14,QGQLVESGGGLVQAGGSLRLSCAASGSIFEGYVMGWYRQAPGKERELFATISFSGGSTYYADSVKGRFTISRDNAKNTGYLQMNSLKPVDTAVYFCADSVPYKFYSVVSVRYEYWGQGTQVTVSS,low polyreactivity
15,QGQLVESGGGLVQAGGSLRLSCAASGSIFVLNAMGWYRQAPGKERELVAAISGGSTNYADSVKGRFTISRDNAKNTVYLQMNSLKPEDTAVYYCAARARRRYYYWGQGTQVTVSS,high polyreactivity
16,QGQLVESGGGLVQAGGSLRLSCAASGSSFRGNALGGYRQAPGKERELVASISYSGGSTYYADSVKGRFTISRDSAKNTVYLQMNSLKPEDTAVYYCAADDSVAYPYSGYQYYRHIYDDWGQGTQVTVSS,low polyreactivity
